Data: patent publication US20220242962A1 (APTEVO RESEARCH AND DEVELOPMENT, published 2022)
Like-named read-outs stand apart in the source and are kept apart here.

T1: Fc gamma receptor RIIB/C (human, UniProt P31994 46-217)
T1 construct: soluble SPR analyte
T1 sequence (looked up): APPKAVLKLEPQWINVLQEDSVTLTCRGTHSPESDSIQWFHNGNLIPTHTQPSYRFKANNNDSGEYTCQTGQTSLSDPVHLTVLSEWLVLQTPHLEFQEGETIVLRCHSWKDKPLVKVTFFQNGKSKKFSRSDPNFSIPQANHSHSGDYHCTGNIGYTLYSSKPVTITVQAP

T2: Full-length Human OX40 (human, UniProt P43489 29-277)
T2 construct: also called OXF001; human OX40/CHO
T2 sequence: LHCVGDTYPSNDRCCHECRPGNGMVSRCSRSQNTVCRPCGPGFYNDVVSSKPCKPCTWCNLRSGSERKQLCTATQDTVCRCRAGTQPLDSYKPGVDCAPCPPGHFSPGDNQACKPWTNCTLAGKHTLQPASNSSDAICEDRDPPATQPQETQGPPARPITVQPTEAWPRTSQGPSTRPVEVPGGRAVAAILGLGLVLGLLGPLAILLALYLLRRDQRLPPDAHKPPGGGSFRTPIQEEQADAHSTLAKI

T3: Human OX40 ECD-AFH (human)
T3 construct: ECD'; entry includes the C-terminal tags; also called OXF003; Human OX40 ECD-avi-flag-his
T3 chain: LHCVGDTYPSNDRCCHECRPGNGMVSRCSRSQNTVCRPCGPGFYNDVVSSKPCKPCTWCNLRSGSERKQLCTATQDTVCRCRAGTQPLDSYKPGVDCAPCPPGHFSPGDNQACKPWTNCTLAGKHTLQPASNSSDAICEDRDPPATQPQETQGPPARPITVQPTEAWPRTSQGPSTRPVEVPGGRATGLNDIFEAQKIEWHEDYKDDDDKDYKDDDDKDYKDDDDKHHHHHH


Tests used:
Cyno RI = molecular target: T4, Cyno RI (cynomolgus monkey, UniProt Q8SPW5 16-292); test: SPR, Fc captured, receptor as analyte
T4 construct: also called cyno RI receptor
Description: (§1) For these experiments, all four flow cells of a CM5 sensor chip were immobilized with goat F(ab′)2 anti-human Fc (Jackson ImmunoResearch) to a response level of ˜4000 RU. Fc variants and wild type Fc were diluted to 100 nM in HBS-EP+ and captured on the surface of the chip for 120 seconds at a flow rate of 10 μL/min. Fcγ receptors (human and cyno, all purchased from R&D Systems) and complement (C1Q, purchased from Quidel Corporation and Complement Technology, Inc) were diluted in HBS-EP+ and then flowed as analytes at 30 μL/min for 120 seconds followed by a 120 seconds dissociation. Regeneration was achieved by flowing 10 mM glycine pH 1.7 at 30 μL/min for 30 seconds followed by a 60 seconds stabilization. Flow cell 1 was always left as a blank (no captured protein) for purposes of background signal subtraction. Blank-subtracted sensorgrams for each captured Fc variant were inspected for the presence of binding to any of the Fcγ receptor proteins or complement. There are polymorphisms in the Human Fc receptors IIA and RIIIA, so both sequences were tested for binding.

Cyno RIII = molecular target: T5, Cyno RIII (cynomolgus monkey, UniProt Q8SPW2 17-208); test: SPR, Fc captured, receptor as analyte
T5 construct: extracellular domain
Description: as §1

[1] = molecular target: T6, Fc gamma receptor RIIIA V176 (human, UniProt P08637 17-208); test: SPR, Fc captured, receptor as analyte, relative to wild type Fc
T6 construct: soluble SPR analyte
Description: (§2) Fc mutations to be potentially integrated into an ADAPTIR™ bispecific construct were analyzed for binding to the common Fc receptors (human and cyno) and C1Q, which is a component of the complement activation system. SPR experiments were conducted at 25° C. in HBS-EP+ buffer on a Biacore T200 system.
as §1

Fc gamma receptor RI = molecular target: T7, Fc gamma receptor RI (human, UniProt P12314 16-288); test: as above
T7 construct: also called FcγRI
Description: as §2, §1

Fc gamma receptor RIIB/C = molecular target: T1, Fc gamma receptor RIIB/C; test: SPR, Fc captured, receptor as analyte
Description: as §2, §1

Full-length Human OX40 [2] = molecular target: T2, Full-length Human OX40; test: flow cytometry, CHO cells expressing human OX40
Full-length Human OX40 [3] = molecular target: T2, Full-length Human OX40; test: flow cytometry, CHO cells expressing human OX40; remark: listed apart in the source
Human OX40 ECD-AFH = molecular target: T3, Human OX40 ECD-AFH; test: SPR (T200), construct captured, monomeric ECD as analyte
Description: (§3) Mouse anti-human IgG (GE, BR-1008-39) at 25 μg/ml in 10 mM sodium acetate pH 5.0 was immobilized at a density of ˜10,000 response units (RU) onto each flow cell of a CM5 research-grade sensor chip (GE) by standard amine coupling chemistry. Each binding protein at approximately 100 nM in HBS-EP+ with 0.2% BSA buffer was captured in a flow cell with the immobilized anti-human IgG at a flow rate of 10 μL/min for 20 seconds, leaving one flow cell surface unmodified as the reference. Using a single-cycle kinetics mode, five different concentrations of ECD were sequentially injected through each flow cell at 30 μL/min for 300 seconds followed by a 600 second dissociation period. Regeneration was achieved by injection of 3 M MgCl₂ at a flow rate of 30 μL/min for 30 seconds followed by HBS-EP+ with 0.2% BSA buffer stabilization for 1 min.
(§4) Sensorgrams obtained from kinetic SPR measurements were analyzed by the double subtraction method. The signal from the reference flow cell was subtracted from the analyte binding response obtained from flow cells with immobilized or captured ligands. Buffer reference responses were then averaged from multiple injections. The averaged buffer reference responses were then subtracted from analyte binding responses, and the final double-referenced data were analyzed with Biacore T200 Evaluation software (2.0, GE), globally fitting data to derive kinetic parameters. All sensorgrams were fitted using a simple one-to-one binding model.

Human 4-1BB ECD-AFH = molecular target: T8, Human 4-1BB ECD-AFH (human); test: as above
T8 construct: entry includes the tags; also called FOB003; HUMAN CD137 ECD-AVI-FLAG-HIS
Description: as §3, §4

Full-length Human 4-1BB = molecular target: T9, Full-length Human 4-1BB (human, UniProt Q07011 24-255); test: flow cytometry, Jurkat cells expressing human 4-1BB
T9 construct: also called FOB005; CD137
Description: Serial dilutions of ADAPTIR™ constructs were incubated with cells transfected with human or cynomolgus ECD and subsequently labelled with a fluorescently-conjugated goat-α-human Fc secondary antibody. […] (See Example 16.)

T8 sequence (chain, as listed by the source limits assumed): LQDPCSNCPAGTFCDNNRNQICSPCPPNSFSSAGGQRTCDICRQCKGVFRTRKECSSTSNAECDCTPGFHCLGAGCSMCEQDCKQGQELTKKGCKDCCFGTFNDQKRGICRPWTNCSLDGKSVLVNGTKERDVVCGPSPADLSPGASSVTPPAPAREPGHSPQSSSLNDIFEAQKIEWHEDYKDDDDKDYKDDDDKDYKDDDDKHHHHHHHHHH
T9 sequence (Q07011 24-255): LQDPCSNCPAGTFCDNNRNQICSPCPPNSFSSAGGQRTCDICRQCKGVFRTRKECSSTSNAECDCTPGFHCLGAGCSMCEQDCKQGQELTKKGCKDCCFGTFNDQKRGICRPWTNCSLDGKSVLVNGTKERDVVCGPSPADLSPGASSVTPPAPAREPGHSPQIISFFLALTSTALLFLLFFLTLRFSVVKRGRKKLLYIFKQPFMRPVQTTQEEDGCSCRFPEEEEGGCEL
T4 sequence (Q8SPW5 entry or part of it limits assumed): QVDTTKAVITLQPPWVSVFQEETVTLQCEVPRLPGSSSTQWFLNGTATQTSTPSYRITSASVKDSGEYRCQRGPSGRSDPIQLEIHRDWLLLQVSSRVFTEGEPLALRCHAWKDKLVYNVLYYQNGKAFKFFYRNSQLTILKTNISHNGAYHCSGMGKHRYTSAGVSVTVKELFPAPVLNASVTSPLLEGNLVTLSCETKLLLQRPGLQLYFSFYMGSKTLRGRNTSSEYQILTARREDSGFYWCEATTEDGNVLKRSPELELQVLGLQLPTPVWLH
T7 sequence (P12314 16-288 limits assumed): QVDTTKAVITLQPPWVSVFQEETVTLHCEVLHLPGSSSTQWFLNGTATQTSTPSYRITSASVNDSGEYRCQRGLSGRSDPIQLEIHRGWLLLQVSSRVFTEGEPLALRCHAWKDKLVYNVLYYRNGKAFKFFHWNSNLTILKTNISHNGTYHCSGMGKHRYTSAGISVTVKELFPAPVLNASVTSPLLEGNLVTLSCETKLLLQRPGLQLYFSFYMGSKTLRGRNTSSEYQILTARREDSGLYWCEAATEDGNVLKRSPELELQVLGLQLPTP
T6 sequence (P08637 17-208 F176V): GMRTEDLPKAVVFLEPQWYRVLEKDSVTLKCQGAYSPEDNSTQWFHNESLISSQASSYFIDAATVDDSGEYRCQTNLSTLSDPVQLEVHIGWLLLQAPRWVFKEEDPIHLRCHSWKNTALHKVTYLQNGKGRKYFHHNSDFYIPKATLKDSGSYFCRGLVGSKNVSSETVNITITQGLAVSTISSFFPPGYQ
T5 sequence (Q8SPW2 17-208): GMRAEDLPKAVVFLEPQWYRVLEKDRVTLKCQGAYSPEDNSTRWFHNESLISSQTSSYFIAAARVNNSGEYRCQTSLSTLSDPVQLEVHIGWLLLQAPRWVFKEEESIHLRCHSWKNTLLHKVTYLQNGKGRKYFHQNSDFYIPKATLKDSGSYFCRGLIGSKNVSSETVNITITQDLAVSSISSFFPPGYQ

| binding result (Cyno RI) | binding result (Cyno RIII) | binding result [1] | binding result (Fc gamma receptor RI) | binding result (Fc gamma receptor RIIB/C) | EC50 (Full-length Human OX40 [2]) | EC50 (Full-length Human OX40 [3]) | Max MFI (Full-length Human OX40 [3]) | Kd (Human OX40 ECD-AFH) | koff (Human OX40 ECD-AFH) | kon (Human OX40 ECD-AFH) | Kd (Human 4-1BB ECD-AFH) | koff (Human 4-1BB ECD-AFH) | kon (Human 4-1BB ECD-AFH) | EC50 (Full-length Human 4-1BB) | Max MFI (Full-length Human 4-1BB) | Binder |
| --- | --- | --- | --- | --- | --- | --- | --- | --- | --- | --- | --- | --- | --- | --- | --- | --- |
| no binding | no binding | binds | binds | no binding |  |  |  |  |  |  |  |  |  |  |  | TSC 1005 (other, IgG1 Fc with E233P, L234V, L235A, deletion of G236, G237A, K322A (EU); also called PVAdel TSC01005) EPKSSDKTHTCPPCPAPPVAAPSVFLFPPKPKDTLMISRTPEVTCVVVDVSHEDPEVKFNWYVDGVEVHNAKTKPREEQYNSTYRVVSVLTVLHQDWLNGKEYKCAVSNKALPAPIEKTISKAKGQPREPQVYTLPPSRDELTKNQVSLTCLVKGFYPSDIAVEWESNGQPENNYKTTPPVLDSDGSFFLYSKLTVDKSRWQQGNVFSCSVMHEALHNHYTQKSLSLSPG |
|  |  |  |  |  | 0.57 nM | 1.5 nM | 8620 MFI | 0.4 nM | 0.00014 s⁻¹ | 380000 M⁻¹ s⁻¹ | 14 nM | 0.0044 s⁻¹ | 300000 M⁻¹ s⁻¹ | 0.27 nM | 4540 MFI | FXX01066 (bispecific antibody, ADAPTIR scFv-Fc-scFv, anti-4-1BB (VH-VL) N-terminal, anti-OX40 C-terminal, PAA (del) Fc; also called FX01066) EVQLVQSGAEVKKPGASVKVSCKASGYTFTSYWMNWVRQAPGQGLEWMGNIYPSGGSTNYAQKFQGRVTMTVDTSTSTVYMELSSLRSEDTAVYYCASFSDGYYAYAMDYWGQGTLVTVSSGGGGSGGGGSGGGGSGGGGSEIVMTQSPATLSLSPGERATLSCRASQSVSSYLNWYQQKPGQAPRLLIYYASRRHTGIPARFSGSGSGTDFTLTISSLQPEDFAVYYCQQGYNLPYTFGQGTKVEIKEPKSSDKTHTCPPCPAPPAAAPSVFLFPPKPKDTLMISRTPEVTCVVVDVSHEDPEVKFNWYVDGVEVHNAKTKPREEQYNSTYRVVSVLTVLHQDWLNGKEYKCAVSNKALPAPIEKTISKAKGQPREPQVYTLPPSRDELTKNQVSLTCLVKGFYPSDIAVEWESNGQPENNYKTTPPVLDSDGSFFLYSKLTVDKSRWQQGNVFSCSVMHEALHNHYTQKSLSLSPGGGGSPSSYVLTQPPSVSVAPGQTARITCGGNNIGSKSVNWFQQKPGQAPVLVVYDDSGRPSGIPERFSGSTSGNTATLTISRVEAGDEADYYCQVWDSSSDHVVFGGGTKLTVLGGGGSGGGGSGGGGSGGGGSQVQLVESGGGVVQPGRSLRLSCAASGFTLSYYGMHWVRQAPGKGLEWVAAISHDGSDKYYADSVKGRFTISRDNSKNTLYLQMNSLRAEDTAVYYCSNDQFDPWGQGTLVTVSSR |
